We go through one substance from PMC4858563.

The assay has as its target Tula virus (TULV) Gn glycoprotein on virions (Tula virus (TULV), strain Moravia). Put plainly: cryo-EM structure.

As to “Tula virus (TULV) Gn glycoprotein on virions (natural protein)”, the stoichiometry N turned out to be 4.
